Measurements: patent publication US20120115741A1 (BRACCO IMAGING S P A, published 2012)

Tests used:
Test in all cases: phage ELISA, Fab adsorbed on plate, peptide-displaying phage added, anti-M13-HRP detection
[1] = biological target: T1, Phage-displayed dodecapeptide of SEQ ID NO 5 (Ph.D.-12 library clone) (filamentous phage M13)
T1 construct: In the screening ELISA the peptide stood on whole M13 phage particles, not as a free peptide; not shown: cpIII coat protein of the filamentous phage M13; the dodecapeptide is at its N-terminus
T1 peptide: TMGFTAPRFPHY

[2] = biological target: T2, Phage-displayed dodecapeptide of SEQ ID NO 6 (Ph.D.-12 library clone) (filamentous phage M13)
T2 construct: In the screening ELISA the peptide stood on whole M13 phage particles, not as a free peptide; not shown: cpIII coat protein of the filamentous phage M13; the dodecapeptide is at its N-terminus
T2 peptide: MQSPFTPHFAER

[3] = biological target: T3, Phage-displayed dodecapeptide of SEQ ID NO 7 (Ph.D.-12 library clone) (filamentous phage M13)
T3 construct: In the screening ELISA the peptide stood on whole M13 phage particles, not as a free peptide; not shown: cpIII coat protein of the filamentous phage M13; the dodecapeptide is at its N-terminus
T3 peptide: MQSPIVLPLSLS

[4] = biological target: T4, Phage-displayed dodecapeptide of SEQ ID NO 8 (Ph.D.-12 library clone) (filamentous phage M13)
T4 construct: In the screening ELISA the peptide stood on whole M13 phage particles, not as a free peptide; not shown: cpIII coat protein of the filamentous phage M13; the dodecapeptide is at its N-terminus
T4 peptide: HHEPGAWLPLSP

Measured: OD450nm

B1: Fab 68 (soluble Fab, heavy chain clone 6 and light chain clone 8 from a coronary plaque sample) (Fab, V domains shown)
VH: LEESGAEVKKPGENLKISCEASGYNFVNHWIGWVRQMPGRGLEWMGRIYPGDSETRFSPSFQGQVTISVDKTLSTASLQWNSLKTSDSATYYCVTLGRWSSWQGGALSWGQGT
VL: ELTQSPATVSVSPGERATLSCRASQSISFHLAWYQQKPGQAPSLLIYGTSTRATGIPARFSGSGSGTEFTLTISSLQSEDSAVYYCQQYHNWPPLTFGGGT
notes: also called Fab of the invention; Fabs of the present invention
> 1 OD450nm: all assays above
